Test results reported in patent publication US20060270591A1, “Androgen receptor coregulators” (priority 2002, published 2006).

Tests used:
Assay type in all cases: cell-based
ER = target: T1, ER (Homo sapiens, UniProt P03372); assay: ER transactivation with ARA70 in DU145 cells (Example 3); parameters: expressed in transfected cells; host or cells: DU145
T1 sequence (P03372 1-595): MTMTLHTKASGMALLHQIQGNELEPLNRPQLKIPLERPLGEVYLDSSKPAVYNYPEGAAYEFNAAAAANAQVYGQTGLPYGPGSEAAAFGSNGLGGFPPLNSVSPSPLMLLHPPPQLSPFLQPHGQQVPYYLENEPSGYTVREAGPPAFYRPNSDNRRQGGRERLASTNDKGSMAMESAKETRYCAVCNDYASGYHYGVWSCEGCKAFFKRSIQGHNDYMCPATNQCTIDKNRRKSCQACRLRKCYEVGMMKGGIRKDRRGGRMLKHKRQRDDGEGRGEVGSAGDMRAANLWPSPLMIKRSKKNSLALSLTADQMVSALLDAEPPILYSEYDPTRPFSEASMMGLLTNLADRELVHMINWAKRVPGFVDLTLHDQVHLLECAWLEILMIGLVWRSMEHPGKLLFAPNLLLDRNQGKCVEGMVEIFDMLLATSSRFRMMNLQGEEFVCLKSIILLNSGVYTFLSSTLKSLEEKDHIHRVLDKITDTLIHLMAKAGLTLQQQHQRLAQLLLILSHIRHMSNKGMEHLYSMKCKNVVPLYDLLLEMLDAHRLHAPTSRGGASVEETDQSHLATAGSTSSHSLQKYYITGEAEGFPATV
Procedure: 411. Human prostate cancer DU145 and PC-3 cells were maintained in […] (DMEM) containing penicillin (25 U/ml), streptomycin (25 μg/ml), and 5% fetal calf serum (FCS). Human LNCaP cells were maintained in RPMI containing penicillin (25 U/ml), streptomycin (25 μg/ml), and 10% FCS. Transfections were performed using the calcium phosphate precipitation method, as previously described (Dynlacht et al. (1991) Cell 66, 563-576). Briefly, 4×10^5 cells were plated on 60-mm dishes 24 hours before transfection, and the medium was changed to DMEM with 5% charcoal-dextran stripped FCS (CS-FBS) one hour before transfection. Transfection medium contained a constant amount of reporter plasmid and indicated amounts of pSG5-receptor, ARA70, or pCMX-GAL fusion construct using pSG5 as a carrier to provide equal amounts of transfected DNA. Twenty-four hours after transfection, the medium was changed again, and the cells were treated with DHT or other treatments. After another 24 hours, the cells were harvested for chloramphenicol transferase (CAT) or luciferase assays. At least three independent experiments were carried out in each case. Superfect (Qiagen) was used for transfection in LNCaP cells. The transfection conditions followed the manufacturer's protocol. […]

PPAR-γ = target: T2, PPAR-γ (Homo sapiens, UniProt P37231); assay: PPAR-γ transactivation reporter assay (PPRE-Luc) with SV
T2 sequence (P37231 1-505): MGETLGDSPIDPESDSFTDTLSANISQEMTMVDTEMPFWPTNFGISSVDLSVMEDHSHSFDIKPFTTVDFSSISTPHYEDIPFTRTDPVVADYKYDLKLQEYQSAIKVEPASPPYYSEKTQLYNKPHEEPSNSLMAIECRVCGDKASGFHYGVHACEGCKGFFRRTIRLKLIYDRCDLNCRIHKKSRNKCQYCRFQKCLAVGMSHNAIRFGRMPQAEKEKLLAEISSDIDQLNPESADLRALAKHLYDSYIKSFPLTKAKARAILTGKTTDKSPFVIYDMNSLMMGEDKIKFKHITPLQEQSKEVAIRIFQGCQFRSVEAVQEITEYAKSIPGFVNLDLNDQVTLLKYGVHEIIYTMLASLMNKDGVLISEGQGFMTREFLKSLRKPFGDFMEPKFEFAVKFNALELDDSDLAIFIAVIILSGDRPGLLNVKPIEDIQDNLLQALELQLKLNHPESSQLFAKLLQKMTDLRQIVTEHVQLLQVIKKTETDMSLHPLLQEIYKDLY
Procedure: (§1) 42. […] (A) The interaction of SV with AR, GR, PPAR-γ and ER-α is tested in mammalian two-hybrid assay. One μg plasmids expressing Gal4(DBD)-AR, GR, PPAR-γ or ER-α was co-transfected with 4 μg plasmids expressing VP16 or VP16-SVn to COS-1 cells. […] The assay method was the same as described in FIG. 29. Relative activities of ligand treatment to EtOH treatment are shown. (B) The coactivation function of SV in different receptors was assayed using reporter gene study. MMTV-Luc, PPRE-Luc, ERE-Luc are the reporter genes for AR, GR, PPAR-γ, and ER-α respectively. Lanes 1, 5, 9 and 13 are regarded as 1 fold in each panel.
(§2) 475. In AR transactivation activity assays, transfections were performed using SuperFect (Qiagen, Chatsworth, Calif.) following protocols described in manual provided by Qiagen. Briefly, cells were plated on 35 mm dishes and after 24 h were transfected using the SuperFect kit. The total DNA amount was adjusted to 2 μg with pSG5 or pEGFP vectors. The medium was changed to DMEM with 10% CD-FBS 2 h after transfection. After 24 h, the DMEM with 10% CD-FBS was changed again, and the cells were treated with various steroids. Cells were harvested after 24 h for dual-luciferase assay as described in protocol provided by Promega. At least three independent experiments were carried out in each case.

ER-α = target: T3, ER-α (Homo sapiens, UniProt P03372); assay: ER-α transactivation reporter assay (ERE-Luc) with SV
T3 sequence (P03372 1-595): T1 sequence (P03372 1-595)
Procedure: as §1, §2

Row | Substance | enhancement of ER transactivation (ER) | effect on the transactivation of PPAR-γ (PPAR-γ) | effect on the transactivation of ER-α (ER-α)
1 | ARA70: ligand-enhanced AR coregulator, full length ARA70 | 2-3 fold | – | –
2 | SV: supervillin, 205 kDa actin binding protein; bovine SV (a.a. 1-1792) used in reporter assays | – | little effect | little effect
